This is an account of results in US12577303B2.

The target of assay [1] is human Sirpβ-his (human) (UniProt O00241). As to the kind of experiment: ELISA. (In an ELISA, binding on a coated surface is turned into a signal by an enzyme label.)
The target in assay [2] is human Sirpα-V1 recombinant protein (human) (UniProt P78324). The assay can be described thus: ELISA.
Assay [3] has the same target. As to the kind of experiment: ELISA. The source holds these as a separate data set.
Assay [4] has as its target human T cells (expressing Sirpγ) (human) (UniProt Q9P1W8). As to the kind of experiment: flow cytometry on human PBMC T cells, 10 µg/mL. On the technique in general: In flow cytometry, cells or beads pass a laser one at a time.
Assay [5] has the same target. The assay can be described thus: flow cytometry on human PBMC T cells.
The target of assay [6] is human Sirpα-V1 on CHO-K1 hSirpα+ cells (human) (UniProt P78324). As to the kind of experiment: cell ELISA on hSirpα-v1+ cell strain.
The target of assay [7] is human Sirpα-V1-his (human) (UniProt P78324). As to the kind of experiment: blocking ELISA: hSirpα to CD47 (dimer).
In assay [8] the target is human Sirpα-V1-hFc (human) (UniProt P78324). As to the kind of experiment: blocking ELISA: hSirpα (dimer) to CD47.
In assay [9] the target is human Sirpα-V1 recombinant protein (human) (UniProt P78324). As to the kind of experiment: ELISA. The source holds these as a separate data set.
The target in assay [10] is human Sirpα-V1-hFc (human) (UniProt P78324). As to the kind of experiment: blocking ELISA: hSirpα (dimer) to hCD47.
Assay [11] concerns the target human Sirpα-V1 on CHO-K1 hSirpα+ cells (human) (UniProt P78324). The assay can be described thus: cell ELISA on CHO-K1 hSirpα+ cells.
The target of assay [12] is human Sirpα-V1-his (human) (UniProt P78324). The assay can be described thus: blocking ELISA: hSirpα to hCD47 (dimer).

Read-outs that look alike come from different tables or passages of the source.

The EC50 is the concentration that produces a half-maximal response. By IC50 is commonly meant the point on the concentration scale where inhibition reaches its midpoint. Regarding “positive control antibody 1 (Ref1, OSE-172)”, the half-maximal effective concentration (EC50) was found to be 126 pM in assay [1]; 57 pM in assay [2]; 72 pM in assay [3]; 84 pM in assay [6]; 170 pM in assay [9]; 370 pM in [11]. The substance further gave a proportion of cells with fluorescence intensity above 10^3 in [4] of 0.49%. For the same substance, the T-cell binding activity (% binding) in [5] was found to be 1.79%. For the same substance, the half-maximal inhibitory concentration (IC50) in assay [7] is 4160 pM; in assay [8], 3740 pM; in [10], 4550 pM; in assay [12], 4580 pM.
